{"source": "paper PMC9638971", "key": {"[1]": {"target": "fluorescein-5-maleimide-labelled wild-type lipase A (P. aeruginosa PAO1) (UniProt P26876)"}, "[2]": {"target": "lipase A (LipA) from Pseudomonas aeruginosa PAO1, wild type (P. aeruginosa PAO1) (UniProt P26876)"}, "[3]": {"target": "periplasmic chaperone FkpA of P. aeruginosa (P. aeruginosa PAO1)", "assay": "SEC-MALS; isolated chaperones at 2 mg/ml, Superdex 200 Increase 10/300 GL; FkpA, SurA and PpiD in 50 mM KCl, 5 mM MgCl2, 20 mM HEPES-KOH pH 7.4; YfgM in 5 mM glycine, 20 mM NaCl, 5 mM Tris-HCl pH 8.5; Skp in 100 mM NaCl, 20 mM Tris-HCl pH 8.0; LipH in 100 mM NaCl, 200 µM TCEP, 50 mM Tris-HCl pH 8.0"}, "[4]": {"target": "lipase A (LipA) from Pseudomonas aeruginosa PAO1, wild type (P. aeruginosa PAO1) (UniProt P26876)", "remark": "listed apart in the source"}, "[5]": {"target": "lipase A mutant LipA_(F144E) (P. aeruginosa PAO1) (UniProt P26876)", "assay": "SEC-MALS; LipA_(F144E):Skp mixture (molar ratio 1:3) compared with Skp3 alone; SDS-PAGE and densitometry of the peak fractions"}, "[6]": {"target": "periplasmic chaperone Skp of P. aeruginosa (P. aeruginosa PAO1)", "assay": "SAXS; Skp at 1.20 mg/ml, 15 °C; ab initio reconstitution with P3 symmetry (GASBOR)"}, "[7]": {"target": "periplasmic chaperone Skp of P. aeruginosa (P. aeruginosa PAO1)", "assay": "SEC-MALS; isolated chaperones at 2 mg/ml, Superdex 200 Increase 10/300 GL; FkpA, SurA and PpiD in 50 mM KCl, 5 mM MgCl2, 20 mM HEPES-KOH pH 7.4; YfgM in 5 mM glycine, 20 mM NaCl, 5 mM Tris-HCl pH 8.5; Skp in 100 mM NaCl, 20 mM Tris-HCl pH 8.0; LipH in 100 mM NaCl, 200 µM TCEP, 50 mM Tris-HCl pH 8.0"}, "[8]": {"target": "fluorescein-5-maleimide-labelled wild-type lipase A (P. aeruginosa PAO1) (UniProt P26876)", "remark": "listed apart in the source"}, "[9]": {"target": "fluorescein-5-maleimide-labelled lipase A mutant LipA_(F144E) (P. aeruginosa PAO1) (UniProt P26876)", "assay": "MST; FM-labelled LipA_(F144E) kept constant, Skp titrated (monomer concentrations); TGCG buffer with 0.05% Tween 20; 15 min at 22°C; Monolith NT.115"}}, "data": [{"substance": "lipase-specific foldase LipH lacking the TMD (domain or fragment)", "values": [{"measurement": "soluble fraction of LipA in the sedimentation assay, 150 mM NaCl, LipA:LipH molar ratio 1:1", "setting": "[1]", "value": "> 80", "unit": "%"}, {"measurement": "inhibition of pNPB hydrolysis by wild-type LipA with LipH and Skp3 added simultaneously (LipA:LipH:chaperone 1:1:5, 50 mM NaCl)", "setting": "[2]", "value": "< 10", "unit": "%"}]}, {"substance": "periplasmic chaperone FkpA of P. aeruginosa (natural protein)", "values": [{"measurement": "stoichiometry N", "setting": "[3]", "value": 2}]}, {"substance": "periplasmic chaperone Skp of P. aeruginosa (natural protein)", "values": [{"measurement": "decrease in ThT fluorescence of LipA aggregates in the presence of Skp3 (0.5 µM LipA, 5 µM Skp3)", "setting": "[4]", "value": 75, "unit": "%"}, {"measurement": "LipA:Skp3 ratio by densitometry of the peak fractions (Skp3 per LipA)", "setting": "[5]", "value": 3}, {"measurement": "stoichiometry N (Skp3 per LipA)", "setting": "[5]", "value": 2}, {"measurement": "soluble fraction of LipA in the sedimentation assay, 150 mM NaCl, 0.5 µM LipA and 5 µM Skp3", "setting": "[1]", "value": 66, "unit": "%"}, {"measurement": "stoichiometry N", "setting": "[6]", "value": 3}, {"measurement": "stoichiometry N", "setting": "[7]", "value": 3}, {"measurement": "soluble fraction of LipA in the sedimentation assay at LipA:Skp3 molar ratios 1:10, 1:3 and 1:1; value at 1:10 and 1:3, dropped dramatically at 1:1", "setting": "[8]", "value": "> 70", "unit": "%"}, {"measurement": "KD of the first (high-affinity) binding mode", "setting": "[9]", "value": 20, "unit": "nM"}, {"measurement": "KD of the second (low-affinity) binding mode", "setting": "[9]", "value": 2, "unit": "µM"}]}]}
